The target of this test is T1, PODXL1-HA(x3)-His(x6) (human, UniProt O00592-1 23-558).
T1 sequence (looked up): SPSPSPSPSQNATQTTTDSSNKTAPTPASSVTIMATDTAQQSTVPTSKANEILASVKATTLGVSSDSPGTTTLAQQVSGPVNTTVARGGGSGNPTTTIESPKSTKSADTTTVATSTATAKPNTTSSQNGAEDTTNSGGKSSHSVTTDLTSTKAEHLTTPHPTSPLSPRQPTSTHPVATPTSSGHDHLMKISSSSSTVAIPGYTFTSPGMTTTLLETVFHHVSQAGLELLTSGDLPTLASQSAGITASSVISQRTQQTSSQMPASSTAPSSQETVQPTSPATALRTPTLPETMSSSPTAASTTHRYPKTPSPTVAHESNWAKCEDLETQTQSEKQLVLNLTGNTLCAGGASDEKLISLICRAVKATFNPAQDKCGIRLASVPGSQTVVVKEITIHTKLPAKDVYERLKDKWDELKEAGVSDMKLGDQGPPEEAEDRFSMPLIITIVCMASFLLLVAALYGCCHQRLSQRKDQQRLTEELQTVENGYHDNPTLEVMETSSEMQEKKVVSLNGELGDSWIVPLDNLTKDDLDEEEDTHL
Kind of test: pull-down.

B1: C5aR (Complement component 5a receptor 1), C-terminal 3xFlag-6xHis-tagged (receptor, human, UniProt P21730 1-350, looked up)
chain: MDSFNYTTPDYGHYDDKDTLDLNTPVDKTSNTLRVPDILALVIFAVVFLVGVLGNALVVWVTAFEAKRTINAIWFLNLAVADFLSCLALPILFTSIVQHHHWPFGGAACSILPSLILLNMYASILLLATISADRFLLVFKPIWCQNFRGAGLAWIACAVAWGLALLLTIPSFLYRVVREEYFPPKVLCGVDYSHDKRRERAVAIVRLVLGFLWPLLTLTICYTFILLRTWSRRATRSTKTLKVVVAVVASFFIFWLPYQVTGIMMSFLEPSSPTFLLLKKLDSLCVSFAYINCCINPIIYVVAGQGFQGRLRKSLPSLLRNVLTEESVVRESKSFTRSTVDTMAQKTQAV
On to B1, for which the binding result is on record as “binds”.

The values are drawn from publication PMC6872781 (Neoplasia (New York, N.Y.), 2019).
